Results on three substances are retold here after article PMC5384658, “The evolution of Sex-linked barring alleles in chickens involves both regulatory and coding changes in CDKN2A” (PLoS Genetics, 2017).

Data set [1] concerns the target chicken MDM2_(204-298) (chicken).
For data set [2] the following is noted: ultracentrifugation, far-UV CD and NMR; ref [21], [22]; cited from earlier work. The text has this:
The striking phenotypic differences associated with the B0, B1, and B2 alleles imply that the two missense mutations must affect ARF function since all three alleles share the two non-coding changes associated with Sex-linked barring (Fig 1). To learn more about the specific effects of the coding ARF mutations we performed biophysical studies on peptides corresponding to the N-terminus of wild-type and mutant chicken ARF (ARF1-14^WT, ARF1-14^V9D, ARF1-14^R10C) and purified chicken MDM2_204-298. Previously, using a combination of ultracentrifugation, far-UV circular dichroism (CD) and NMR exper ...

On to “ARF_(1-14)^R10C peptide (N-terminus of chicken ARF with R10C, B2 allele) (from UniProt A0A8V0X483 1-14)”, for which the p53-luc luciferase reporter activity in U2OS cells transfected with chicken ARF (coding region, pcDNA3.1) carrying R10C, compared to wild-type chicken ARF (% of wild type) in data set [1] is 77.
“ARF_(1-14)^V9D peptide (N-terminus of chicken ARF with V9D, B1 allele) (from UniProt A0A8V0X483 1-14)” returned a p53-luc luciferase reporter activity in U2OS cells transfected with chicken ARF (coding region, pcDNA3.1) carrying V9D, compared to wild-type chicken ARF (% of wild type) in data set [1] of 58.
As to “MDM2_210-304: human MDM2 XP_005268929 residues 210-304, corresponding to chicken MDM2_204-298”, in data set [2], the “structure in free state” value is “intrinsically disordered in their free states”.
